Experimental data reported in paper PMC10343166.

Legend:
[1] = target: Puromycin-sensitive aminopeptidase F433A mutant, with C-terminal polyhistidine sequence (human) (UniProt P55786); test: competitive inhibition of enzyme activity (Dixon plots); apparent Ki from inhibition of Ala-4MβNA cleavage at increasing peptide concentrations; 20 mM HEPES pH 7.0, 2 mM BME, 37°C; 20 μM (PSA^wt) or 100 μM (PSA^F433A) Ala-4MβNA; triplicate
[2] = target: Puromycin-sensitive aminopeptidase, wild type, with C-terminal polyhistidine sequence (kinetic studies) (human) (UniProt P55786); test: as above
Puromycin-sensitive aminopeptidase, wild type, with C-terminal polyhistidine sequence (kinetic studies) (human), sequence (P55786 whole entry): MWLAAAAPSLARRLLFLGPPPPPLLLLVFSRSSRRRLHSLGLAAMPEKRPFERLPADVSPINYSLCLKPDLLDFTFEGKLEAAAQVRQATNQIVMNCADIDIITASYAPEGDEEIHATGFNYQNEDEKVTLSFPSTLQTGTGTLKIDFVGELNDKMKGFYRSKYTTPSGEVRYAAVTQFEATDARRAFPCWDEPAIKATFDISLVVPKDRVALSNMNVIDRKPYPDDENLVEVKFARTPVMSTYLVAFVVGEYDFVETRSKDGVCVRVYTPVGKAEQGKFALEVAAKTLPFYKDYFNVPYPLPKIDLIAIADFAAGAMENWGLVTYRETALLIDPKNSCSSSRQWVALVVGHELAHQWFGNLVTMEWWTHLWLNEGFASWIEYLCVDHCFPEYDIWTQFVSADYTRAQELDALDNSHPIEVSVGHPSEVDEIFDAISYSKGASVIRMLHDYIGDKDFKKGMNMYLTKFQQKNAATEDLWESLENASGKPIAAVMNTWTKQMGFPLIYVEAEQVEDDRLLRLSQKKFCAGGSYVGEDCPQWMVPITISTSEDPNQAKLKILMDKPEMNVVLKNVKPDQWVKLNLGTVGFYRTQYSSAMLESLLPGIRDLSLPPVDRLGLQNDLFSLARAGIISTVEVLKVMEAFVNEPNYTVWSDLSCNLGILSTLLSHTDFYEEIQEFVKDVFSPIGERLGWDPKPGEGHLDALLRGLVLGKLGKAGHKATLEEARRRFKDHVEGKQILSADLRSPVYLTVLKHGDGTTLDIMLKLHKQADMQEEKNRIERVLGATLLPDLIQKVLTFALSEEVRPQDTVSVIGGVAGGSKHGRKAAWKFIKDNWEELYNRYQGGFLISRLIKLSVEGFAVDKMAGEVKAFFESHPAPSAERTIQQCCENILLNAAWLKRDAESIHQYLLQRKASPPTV

Puromycin-sensitive aminopeptidase F433A mutant, with C-terminal polyhistidine sequence (human), sequence (P55786 whole entry F433A): as the sequence (P55786 whole entry) above, with F433A counted along it

Dynorphin A(1–17) (peptide)
Ki [1]: 2600 nM | Ki [2]: 440 nM
